Key:
Treg cells = details: in vitro 50 nM MTX (highest concentration analyzed); reduced from 94%, p<0.05; cited from earlier work
[1] = plasma levels of BT061 after intravenous administration in healthy volunteers; assay type: in vivo, human; details: range in three volunteers
Excerpt: This is considered to reflect a faster target mediated clearance.

[2] = test system: rheumatoid arthritis patients; assay: monotherapy trial of BT061 in rheumatoid arthritis patients, ACR improvements; assay type: in vivo, human; details: week 7, blinded data from 8 individuals (2 placebo, six BT061)
Excerpt: This system defines a value of ACR 20 as an at least 20% improvement in tender and swollen joint counts and at least 20% improvement in 3 of the 5 remaining ACR core set measures: patient and physician global assessments, pain, disability, and an acute phase reactant, such as C-reactive protein (CRP) or Erythrocyte Sedimentation Rate (ESR). Similarly, ACR 50 and ACR 70 scores define an at least 50% and an at least 70% improvement, respectively.
As indicated above, in one aspect of the invention the agent and/or methotrexate are administered subcutaneously. In general, as is known in the art, subcutaneous doses need to be larger than intravenous doses in order to achieve the equivalent therapeutic effect.

[3] = test system: CD4+CD25+ regulatory T cells; assay: in vitro proliferation assay with freshly isolated CD4+CD25+ regulatory T cells; assay type: cell-based, human
Experimental: 50 ml EDTA blood specimens were obtained from healthy control donors. Peripheral blood mononuclear cells (PBMCs), regulatory T cells (Tregs) and T helper cells as T responder cells (Tresps) were isolated from peripheral blood samples as previously described (Haas et al., 2007).
Freshly isolated Tregs were pre-incubated for 48 hours with 1 μg/ml plate bound antibody (BT061), 1 μg/ml soluble BT061 or Medium.
Freshly isolated Tregs (2.5×10^4, donor A) obtained from 2 donors (Exp. 1 and Exp. 2) were pre-incubated for 48 hours with either 1 μg/ml soluble or plate bound BT061. To achieve allogeneic stimulation the 2.5×10^4 pre-incubated Tregs were then transferred to 1×10^5 T cells as responder cells (Tresps) from a second donor (donor B) in the presence of 2×10^5 T cell depleted and irradiated (30 Gray) PBMCs (donor A). After 4 days of stimulation 1 μCi [3H] thymidine per well was added and proliferation was measured after additional 16 hours.
The percentage of Treg mediated inhibition of Tresp proliferation is shown in FIG. 1 as the percent suppression of proliferation of Tresps incubated with PBMC in the absence of Tregs. Results are shown for the Tregs obtained from the two donors (Exp. 1 and Exp. 2). […]

[4] = 2 mg i.v. once weekly for six weeks
[5] = 50 mg s.c. once weekly for six weeks

Molecule: CN(Cc1cnc2nc(N)nc(N)c2n1)c1ccc(C(=O)N[C@@H](CCC(=O)O)C(=O)O)cc1 [MTX, 4-amino-N10-methylpteroyl glutamic acid]
- suppressive activity of Treg cells (Treg cells): 88%

B1: BT061: humanized anti-CD4 antibody derived from mouse B-F5, V domains SEQ ID NO: 1 and 2, activates CD4+CD25+ regulatory T cells (antibody, V domains shown)
VH: EEQLVESGGGLVKPGGSLRLSCAASGFSFSDCRMYWLRQAPGKGLEWIGVISVKSENYGANYAESVRGRFTISRDDSKNTVYLQMNSLKTEDTAVYYCSASYYRYDVGAWFAYWGQGTLVTVSS
VL: DIVMTQSPDSLAVSLGERATINCRASKSVSTSGYSYIYWYQQKPGQPPKLLIYLASILESGVPDRFSGSGSGTDFTLTISSLQAEDVAVYYCQHSRELPWTFGQGTKVEIK
modifications: V domain of H chain of humanized antibody hB-F5H37L; V domain of K chain of humanized antibody hB-F5L4M
- plasma level, conc. 3 h post end of infusion ([1]; dosage 2.5 mg intravenous): 0 ng/mL
- plasma level, effective cmax (post end of infusion) ([1]; dosage 2.5 mg intravenous): 60 to 140 ng/mL
- plasma level, conc. 3 h post end of infusion ([1]; dosage 5 mg intravenous): 90 to 160 ng/mL
- plasma level, effective cmax (post end of infusion) ([1]; dosage 5 mg intravenous): 320 to 440 ng/mL
- plasma level, conc. 3 h post end of infusion ([1]; dosage 10 mg intravenous): 460 to 1400 ng/mL
- plasma level, effective cmax (post end of infusion) ([1]; dosage 10 mg intravenous): 800 to 2000 ng/mL
- plasma level, conc. 3 h post end of infusion ([1]; dosage 20 mg intravenous): 1700 to 3300 ng/mL
- plasma level, effective cmax (post end of infusion) ([1]; dosage 20 mg intravenous): 2300 to 4100 ng/mL
- plasma level, conc. 3 h post end of infusion ([1]; dosage 40 mg intravenous): 4400 to 6100 ng/mL
- plasma level, effective cmax (post end of infusion) ([1]; dosage 40 mg intravenous): 5900 to 6500 ng/mL
- plasma level, conc. 3 h post end of infusion ([1]; dosage 60 mg intravenous): 7700 to 11080 ng/mL
- plasma level, effective cmax (post end of infusion) ([1]; dosage 60 mg intravenous): 8900 to 15100 ng/mL
- percentage of patients showing ACR20 [2, 4]: 50%
- percentage of patients showing ACR50 [2, 4]: 25%
- percentage of patients showing ACR70 [2, 4]: 12.5%
- percentage of patients showing ACR20 [2, 5]: 50%
- percentage of patients showing ACR50 [2, 5]: 25%
- percentage of patients showing ACR70 [2, 5]: 12.5%
- Treg mediated suppression of Tresp proliferation ([3]; Tregs pre-incubated 48 hours with 1 μg/ml plate bound BT061, versus medium alone): able to reduce average proliferative responses of allogeneic stimulated Tresps
- Treg mediated suppression of Tresp proliferation ([3]; Tregs pre-incubated 48 hours with 1 μg/ml soluble BT061, versus medium alone): able to reduce average proliferative responses of allogeneic stimulated Tresps

Source: US20110229465A1, “COMPOSITION FOR TREATING DISEASE” (priority 2008, published 2011)
